Data: paper PMC5347793, “Transcription factor LSF-DNMT1 complex dissociation by FQI1 leads to aberrant DNA methylation and gene expression” (Oncotarget, 2016)

B1: MBP-LSF fusion protein (purified full-length LSF) (natural protein, human, UniProt Q12800 1-502, looked up)
chain: MAWALKLPLADEVIESGLVQDFDASLSGIGQELGAGAYSMSDVLALPIFKQEESSLPPDNENKILPFQYVLCAATSPAVKLHDETLTYLNQGQSYEIRMLDNRKLGELPEINGKLVKSIFRVVFHDRRLQYTEHQQLEGWRWNRPGDRILDIDIPMSVGIIDPRANPTQLNTVEFLWDPAKRTSVFIQVHCISTEFTMRKHGGEKGVPFRVQIDTFKENENGEYTEHLHSASCQIKVFKPKGADRKQKTDREKMEKRTPHEKEKYQPSYETTILTECSPWPEITYVNNSPSPGFNSSHSSFSLGEGNGSPNHQPEPPPPVTDNLLPTTTPQEAQQWLHRNRFSTFTRLFTNFSGADLLKLTRDDVIQICGPADGIRLFNALKGRMVRPRLTIYVCQESLQLREQQQQQQQQQQKHEDGDSNGTFFVYHAIYLEELTAVELTEKIAQLFSISPCQISQIYKQGPTGIHVLISDEMIQNFQEEACFILDTMKAETNDSYHIILK

What was measured:
[1] = target: T1, purified full-length DNMT1 (recombinant, baculovirus expressed) (human, UniProt P26358 1-1616); test: cell-based or functional assay
[2] = target: T1, purified full-length DNMT1 …; test: pull-down; as a4, in the presence of 2.5 uM FQI1; details: both partners purified
[3] = target: B1; test: pull-down; GST-DNMT1 fusions on beads incubated with 1 ug purified MBP-LSF; immunoblot with anti-LSF; details: both partners purified

Row | binding result [3] | Binder | further results
1 |  | B1 | DNA methyltransferase activity of purified DNMT1 (80 nM) with His-LSF recombinant protein, molar ratio of His-LSF to DNMT1 from 2:1 to 4:1 [1]: ~2 fold
2 |  | GST-LSF (amino acids 65-259), DNA binding domain (domain or fragment, human, UniProt Q12800 65-259, looked up, Cloned into pGEX-5X-1; also called LSF65-259; source: E. coli, captured on Glutathione Sepharose beads) LPFQYVLCAATSPAVKLHDETLTYLNQGQSYEIRMLDNRKLGELPEINGKLVKSIFRVVFHDRRLQYTEHQQLEGWRWNRPGDRILDIDIPMSVGIIDPRANPTQLNTVEFLWDPAKRTSVFIQVHCISTEFTMRKHGGEKGVPFRVQIDTFKENENGEYTEHLHSASCQIKVFKPKGADRKQKTDREKMEKRTP | binding result [2]: binds
3 | binds | GST-DNMT1 (amino acids 431-836) (domain or fragment, human, UniProt P26358 431-836, looked up) IELFFSGSAKPIYDDDPSLEGGVNGKNLGPINEWWITGFDGGEKALIGFSTSFAEYILMDPSPEYAPIFGLMQEKIYISKIVVEFLQSNSDSTYEDLINKIETTVPPSGLNLNRFTEDSLLRHAQFVVEQVESYDEAGDSDEQPIFLTPCMRDLIKLAGVTLGQRRAQARRQTIRHSTREKDRGPTKATTTKLVYQIFDTFFAEQIEKDDREDKENAFKRRRCGVCEVCQQPECGKCKACKDMVKFGGSGRSKQACQERRCPNMAMKEADDDEEVDDNIPEMPSPKKMHQGKKKKQNKNRISWVGEAVKTDGKKSYYKKVCIDAETLEVGDCVSVIPDDSSKPLYLARVTALWEDSSNGQMFHAHWFCAGTDTVLGATSDPLELFLVDECEDMQLSYIHSKVKVIY | 
4 | binds | GST-DNMT1 (amino acids 1-446) (domain or fragment, human, UniProt P26358 1-446, looked up) MPARTAPARVPTLAVPAISLPDDVRRRLKDLERDSLTEKECVKEKLNLLHEFLQTEIKNQLCDLETKLRKEELSEEGYLAKVKSLLNKDLSLENGAHAYNREVNGRLENGNQARSEARRVGMADANSPPKPLSKPRTPRRSKSDGEAKPEPSPSPRITRKSTRQTTITSHFAKGPAKRKPQEESERAKSDESIKEEDKDQDEKRRRVTSRERVARPLPAEEPERAKSGTRTEKEEERDEKEEKRLRSQTKEPTPKQKLKEEPDREARAGVQADEDEDGDEKDEKKHRSQPKDLAAKRRPEEKEPEKVNPQISDEKDEDEKEEKRRKTTPKEPTEKKMARAKTVMNSKTHPPKCIQCGQYLDDPDLKYGQHPPDAVDEPQMLTNEKLSIFDANESGFESYEALPQHKLTCFSVYCKHGHLCPIDTGLIEKNIELFFSGSAKPIYDDD | 
